Reference: PMC10995199, “Architecture and regulation of filamentous human cystathionine beta-synthase” (Nature Communications, 2024)

Molecular target: human cystathionine beta-synthase regulatory domain alone with the loop deletion (CBS^RDΔ516–525) (human) (UniProt P35520)
Test: SEC + native gel or EMSA; control constructs in analytical Superose 6 gel filtration and clear-native and blue-native PAGE (Supplementary Fig. 2); self-association

stoichiometry N: 2
Substance: human cystathionine beta-synthase regulatory domain alone with the loop deletion (CBS^RDΔ516–525) (from UniProt P35520 406-515) (domain or fragment)
